Data published in patent US20210085756A1, “SUPERACTIVE MUTANT THYMIDINE KINASE FOR USE IN CANCER THERAPY” (MEDIZINISCHE UNIVERSITÄT WIEN, priority 2017, published 2021).
Changes are numbered by the printed parent chain. Names may count otherwise. Like-named read-outs stand apart in the source and are kept apart here.

How the values were obtained:
[1] = 400 mg/m2/day; cited from earlier work
[2] = system: HeLa cervix carcinoma cells; test: growth curves of superTk1 stable transfectant HeLa clone 117 with dTh, 5-FU or AraC +/- doxycyclin; settings: for inhibitory effect at concentrations lower than 5 μM: 2.5 and 1 μM, with dTh; for lowest concentration still able to cause cell growth arrest when combined with dTh: HeLa clone 117 superTk1, 0.1 mM dTh; for relative cell proliferation on day 4 compared to day 1: control groups without doxycycline; for relative cell proliferation on day 4 compared to day 1 / cell number of doxycyclin induced cells versus control without doxycyclin: 5 μM + 0.1 mM dTh; for cell number of doxycyclin induced cells versus control without doxycyclin: day 4
Experimental: Each sample was measured twice and setup as triplicates.
Each sample was set up as triplets and measured twice.
For this task this gene was integrated in pUHDhygr and stable transfected into HeLa cervix carcinoma cells. […] These transfected HeLa cells were grown under permanent hygromycin and puromycin selection pressure for 4 to 7 days, starting with 50.000 cells/well (12.500 cells/ml). In order to establish a perfect growth curve cell counts on a daily basis with a Casy cell counting system were mandatory.

[3] = system: PC-3 cells; test: MTT cell viability - cytotoxicity assay of stable pUHDsuperTK1 transfectants of PC-3; assay type: cell-based, Human (homo sapiens)
Text: The MTT assay is a colorimetric assay for assessing cell metabolic activity; see J Immunol Methods. […] 16; 65(1-2):55-63; Sigma Aldrich. […] MTT Cell Viability Applications. […] Its value was set at 100%.

[4] = system: L1210 leukemia cells; settings: after 0.1 mM dTh; cited from earlier work
[5] = system: rat hepatoma cells; settings: concomitant 1 mM dTh; cited from earlier work
[6] = dTh dose to mean plasma or serum level correlation; assay type: in vivo, human
Text: It can be expected that a therapy regimen employing these reduced concentration levels will be well tolerated by all patients, but still functioning.
Thus, there is normally a linear correlation between the dose/amount of dTh administered and the mean plasma level or mean serum level.

[7] = system: normal and neoplastic cells; test: cytotoxic impact of prolonged dTh in cell culture; assay type: cell-based; settings: administered for prolonged times
[8] = system: patients with relapsed leukemia or lymphoma; settings: cited from earlier work
[9] = biological target: T1, human cytosolic Tk1 (Homo sapiens, UniProt P04183, G90A/K211R); test: thymidine kinase specific enzyme activity assay (3H-dTh, DE81 filters); assay type: biochemical
T1 construct: made in house
T1 sequence (P04183 with tags, fused parts or gaps G90A/K211R): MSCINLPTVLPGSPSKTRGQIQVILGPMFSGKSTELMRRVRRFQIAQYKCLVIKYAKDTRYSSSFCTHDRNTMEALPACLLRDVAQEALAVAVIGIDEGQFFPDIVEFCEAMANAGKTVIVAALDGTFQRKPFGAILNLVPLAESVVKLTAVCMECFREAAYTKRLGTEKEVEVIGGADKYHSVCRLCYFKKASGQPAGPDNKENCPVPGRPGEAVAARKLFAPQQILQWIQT
Experimental: (§1) For the determination of a specific activity a quantification of the protein solution was done first, according the method of Bradford. The dye stock solution (Biorad) containing methanol and acetic acid was diluted 1:4 with ddH2O. An aliquot of the protein solution was then filled up to 1 ml with the diluted Bradford solution. (Usually 5l of protein solution are diluted in […] Bradford solution. The protein concentration is calculated by multiplying the absorbance at =595 nm with 17 and dividing this by 5, resulting in the concentration in μg/μl.) Depending on the concentration of the kinases 5-20 μl of the sample solution were used.
(§2) The following components were mixed for the enzyme assay:
(§3) 10 fold mix: • 0.5 M Tris-HCl, pH 7.5 • 0.1 M DTT • 25 mM ATP • 25 mM MgCl2
(§4) Set up for the activity test: 5.0 μl 10-fold mix • 2.5 μl BSA (60 mg/ml) • 1.0 μl Chaps (25 mM) • 1.0 μl NaF (0.15 M) • 1.0 μl ^3H-dTh or 3H-dCyd (500 μM, 2 Ci/mmol) • 5.0-20 μl of the protein solution • Filled up with ddH2O to 50 μl
(§5) The set-up was incubated at 37° C. At distinct times 10 μl aliquots were removed from the reaction mix and pipetted onto small pieces of DE81-filters. After removal of every aliquot, the filter papers were washed in a big volume of ammonium formiat (5 mM for TK assay), transferred to water and rinsed, and finally dried after shortly immersing them in ethanol. Then, after the dried filters were transferred into the scintillation tubes, the bound radioactive nucleotides were eluted by addition of 500 μl elution buffer (0.1 M HCl, 0.2 M KCl). 2.5 ml of scintillation solution were added before measuring the radioactivity. A standard was created in order to convert the cpm-values into pmol: 5 μl from some of the reactions were removed and pipetted on DE81-filters, which were not washed, but directly transferred to the scintillation tubes, treated like described above, and measured. 5 μl of the standard contained 50 pMol of the substrate or the product. From the cpm-values of these samples one got the converting factor UF (is equal to the specific activity of the used substrate): UF=cpm standard/50 pMol
(§6) For the calculation of the whole enzymatic activity of one fraction (U) the following formula was used:
(§7) 10 μl were pipetted at each time point onto the filter, and 20 μl of the protein solution was initially used. cpm=(cpmt2−cpm t1)/t2−t1 (cpm/min); t1=start of the reaction; t2=end of the reaction, e.g. 5 min; Vol=total volume of the fraction (μl); UF is the specific activity (see above) (cpm/pMol); U is the whole activity of the enzyme per fraction (pMol/min×μl=Mol/min×ml).

[10] = system: human cytosolic Tk1; test: as above; assay type: biochemical
Experimental: as §1, §2, §3, §4, §5, §6, §7

[11] = system: PC-3 prostate carcinoma cells; test: growth experiment, stable pUHDsuperTk1/wtTk1 transfectants of PC-3 treated with dTh +/- doxycyclin; assay type: cell-based, Human (homo sapiens)
Experimental: Cell batches that expressed superTk1 received 5 μg/ml doxycyclin replenished on a daily basis. The control samples received all other constituents (dTh, antibiotics) but no doxycyclin. In addition, the cell culture medium was renewed completely every 72 hrs in all wells in order to avoid unwanted starvation or deprivation effects.
Cell batches that expressed wtTk1 received 5 μg/ml doxycyclin replenished on a daily basis. The control samples received all other constituents (dTh, antibiotics) but no doxycyclin. In addition, the cell culture medium was renewed completely after 72 hrs in all wells in order to avoid unwanted starvation or deprivation effects.

[12] = system: PC-3 prostate cancer cells; test: FACS DNA profile (propidium iodide) cell cycle distribution of PC-3 superTK1 clone 2; assay type: cell-based, Human (homo sapiens); settings: 0.5 mM dTh + 5 μg/ml doxycycline for 3 days
[13] = doxycycline (superTK1 induced), no dTh added
[14] = infusion, up to 240 g/sq m/day for 14 to 29 days
[15] = 0.5 mM dTh daily + 5 μg/ml doxycyclin, superTk1 clone 2 (7 days) or wtTk1 clone 7 (5 days)

O=c1[nH]cc(F)c(=O)[nH]1 [5-FU, 5-fluorouracil]
cmax in the serum [1]: 55.44 µg/mL
inhibitory effect at concentrations lower than 5 μM [2]: too low to exert any inhibitory effects
lowest concentration still able to cause cell growth arrest when combined with dTh [2]: 5 µM
relative cell proliferation on day 4 compared to day 1 [2]: 3.3 fold
cell number of doxycyclin induced cells versus control without doxycyclin [2]: reduced almost to half

C[C@H]1c2cccc(O)c2C(=O)C2=C(O)[C@]3(O)C(=O)C(C(N)=O)=C(O)[C@@H](N(C)C)[C@@H]3[C@@H](O)[C@@H]21 [doxycycline, reference compound]
cell viability (MTT) compared to control [3, 13]: 30%

Nc1ccn([C@@H]2O[C@H](CO)[C@@H](O)[C@@H]2O)c(=O)n1 [AraC, cytosine arabinoside]
increase of incorporation into DNA [4]: 5 fold
inhibitory effect at concentrations lower than 5 μM [2]: too low to exert any inhibitory effects
lowest concentration still able to cause cell growth arrest when combined with dTh [2]: 5 µM
relative cell proliferation on day 4 compared to day 1 [2]: 2.4 fold
cell number of doxycyclin induced cells versus control without doxycyclin [2]: reduced almost to half
increase of incorporation into the DNA [5]: over 2 fold

Cc1cn([C@H]2C[C@H](O)[C@@H](CO)O2)c(=O)[nH]c1=O [dTh, deoxythymidine]
mean plasma level or mean serum level ([6]; 5 g dTh/sqm/day): about 0.1 mM
mean plasma level or mean serum level ([6]; 25 g dTh/sqm/day): about 0.5 mM
dTh levels exerting cytotoxic impacts [7]: exceeding 4 mM
ability to convert the MTT dye, percentage of control absorbance ([3]; 0.5 mM dTh daily for 3 days, no doxycycline): 55%
therapy outcome ([8]; acute leukemia previously refractory to treatment): complete remission in some patients
mean plasma dTh levels [8, 14]: 5.5 mM
side effects [8, 14]: nausea, vomiting, hepatotoxicity, electrolyte imbalances, mild central nervous system toxicity and bone marrow aplasia

B1: human TK1 mut G90A: mutant human thymidine kinase 1 with G90A, aa sequence SEQ ID No. 12, here called superTk1 (protein)
chain: T1 sequence (P04183 with tags, fused parts or gaps G90A/K211R)
modifications: Human TK1 mutG90A
activity compared to the wt Tk1 ([9]; after 5 min incubation time): 9 fold
activity compared to the wt Tk1 ([9]; after 10 min incubation time): 18.2 fold
measured specific Tk1 enzyme activity ([9]; data retrieved from a different experiment): 375 pmol/mg/min
specific activity compared to the wild type enzyme ([10]; listed as A90G): more than 9 fold
specific activity compared to the wild type enzyme ([10]; listed as G90A): about 9 fold
specific activity compared to the wild type enzyme ([10]; listed as superTk1): more than 9 fold
growth of tumor cell cultures (in words) ([2]; 0.1 mM dTh and doxycyclin induction): clear growth repression
relative cell proliferation (in words) [11, 15]: do not proliferate and even decrease in cell number from day 4
relative cell proliferation (in words) ([11]; clone 13, 0.1 mM dTh daily + doxycyclin, four days): did not allow the cells to proliferate at all
cell viability (MTT) compared to control ([3]; 0.5 mM dTh + doxycycline (superTK1 induced)): approx. 20%
cell viability (MTT) compared to control [3, 13]: approx. 30%
cells in G2/M phase [12]: No cells were detectable
cells in S phase [12]: Over 75%
portion of cells in G1 phase [12]: approx. one fourth

B2: human TK1 mut L8081F: double mutant named "feeble" Tk1 with decreased specific activity, aa sequence SEQ ID No. 26 (protein)
chain: T1 sequence (P04183 with tags, fused parts or gaps G90A/K211R) with L80F, L81F, A90G
modifications: Human TK1 mutL8081F
measured specific Tk1 enzyme activity [10]: 1.4 pmol/mg/min
change of specific activity (in words) ([10]; compared to wild type): strong decrease of specific activity

B3: human TK1 mut V84DG90A: double mutant human thymidine kinase 1, aa sequence SEQ ID No. 16; domain aa 71-95 NTMEALPACLLRDDAQEALAVAVIG (protein)
chain: T1 sequence (P04183 with tags, fused parts or gaps G90A/K211R) with V84D
modifications: Human TK1 mutV84DG90A
measured specific Tk1 enzyme activity [10]: 393 pmol/mg/min
specific activity compared to the wild type enzyme [10]: at least 9 fold

B4: wt: wild-type human cytosolic thymidine kinase 1, aa sequence SEQ ID NO. 28 (protein, listed as Homo sapiens)
chain: MSCINLPTVLPGSPSKTRGQIQVILGPMFSGKSTELMRRVRRFQIAQYKCLVIKYAKDTRYSSSFCTHDRNTMEALPACLLRDVAQEALGVAVIGIDEGQFFPDIVEFCEAMANAGKTVIVAALDGTFQRKPFGAILNLVPLAESVVKLTAVCMECFREAAYTKRLGTEKEVEVIGGADKYHSVCRLCYFKKASGQPAGPDNKENCPVPGKPGEAVAARKLFAPQQILQCSPAN
modifications: Human TK1 wt NM_003258
measured specific Tk1 enzyme activity [10]: 37 pmol/mg/min
relative cell proliferation (in words) [11, 15]: proliferate nicely, almost as well as the control cells
